Target: T1, ZNF410 (Homo sapiens) (UniProt Q86VK4)
T1 sequence: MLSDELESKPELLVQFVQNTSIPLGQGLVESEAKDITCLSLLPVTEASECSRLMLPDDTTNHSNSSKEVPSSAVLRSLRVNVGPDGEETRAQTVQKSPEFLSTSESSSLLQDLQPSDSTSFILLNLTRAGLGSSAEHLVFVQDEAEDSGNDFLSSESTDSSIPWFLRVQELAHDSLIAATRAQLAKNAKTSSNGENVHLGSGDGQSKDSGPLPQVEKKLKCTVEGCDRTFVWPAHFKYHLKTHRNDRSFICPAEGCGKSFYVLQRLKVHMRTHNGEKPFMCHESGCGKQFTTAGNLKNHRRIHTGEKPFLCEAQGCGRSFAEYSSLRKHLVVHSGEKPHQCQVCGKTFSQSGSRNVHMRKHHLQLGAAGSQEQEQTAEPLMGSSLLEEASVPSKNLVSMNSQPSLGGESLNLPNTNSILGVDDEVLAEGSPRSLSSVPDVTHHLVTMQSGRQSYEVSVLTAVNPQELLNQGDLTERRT
Conditions: CUT&RUN with anti-HA in HUDEP-2 cells

CHD4 -6 kb enhancer (11 ZNF410 motifs)
binding signal (fold enrichment over IgG): 78

CHD4 promoter (16 ZNF410 motifs)
binding signal (fold enrichment over IgG): 48

NBPF19 intron site
binding signal (fold enrichment over IgG): 11
